This note sets out measurements from the RNAGym collection of RNA variant scans (doi:10.7554/elife.80360).

To fix the notation:
B1: Hairpin Ribozyme (parent)
chain: GUCCUCUUUCACGUGCGCGUGAAAGAGAGAAGUGAACCAGAGAAACACACGUUGUGGUAUAUUACCUGGUA

In the data set the parent is B1. Briefly: self-cleavage, relative activity (ratio to wild type); higher = more cleavage; co-transcriptional.
Consider G40A C66G, for which the self-cleavage was found to be 0.164.
With G40A C66U, the self-cleavage came to 0.832.
With G40C U52C, the self-cleavage came to 0.137.
The value for G40C U52G was 0.064.
For the variant G40A G57A, the self-cleavage came to 0.0955.
For G40C G42C the value was 0.107.
For G40U A41G the value was 0.419; for G40U A41C, 0.255; for G40C U67G, 0.157.
The value for G40A U62G was 0.133.
On to A41C G54C, for which the self-cleavage turned out to be 0.676.
For A41C A59U the value was 0.173.
For G40C U55A the value was 0.107.
Regarding A41G G51U, the self-cleavage was 0.552.
For A41G G51A the value was 1.09; for G40C A71U, 0.09.
On to G40C A59C, for which the self-cleavage was 0.0991.
The value for G40C A59G was 0.0907; that for G40U G56U was 0.111; that for A41C A44C was 0.0994.
With A41G C65A, the self-cleavage was 0.693.
Take A41G A43G: the self-cleavage came out at 0.157.
For A41G G54U the value was 0.577.
For G40U U62G the value was 0.111.
The value for G40U A71C was 0.319; that for G40U A71G was 0.209.
In the case of G40U U53G, the self-cleavage was found to be 0.151.
The value for G40U U53C was 0.344.
For G40U U63G, the self-cleavage turned out to be 0.104.
For G40U U63C the value was 0.092; for A41C G42U, 0.231.
For G40C C46A the value was 0.155.
For A41C C50G the value was 0.667; for A41C C50U, 0.713.
On to G40A G54U, for which the self-cleavage was 0.183.
The value for G40U U60C was 0.148; that for A41U A45U was 0.0714; that for A41G A49U was 0.105.
For A41G A49G the value was 0.504; for A41G C46G, 0.116; for A41G A61G, 0.179.
The value for G40A G51C was 0.238; that for A41C A47G was 0.0213.
For the variant A41C A43C, the self-cleavage worked out at 0.0734.
Turning to G40C A64U, the self-cleavage was 0.125.
For G40U U52A the value was 0.207; for G40U U52C, 0.333.
As for G40U U52G, the self-cleavage was found to be 0.172.
With A41C C48G, the self-cleavage came out at 0.199.
As for A41G U58A, the self-cleavage turned out to be 0.46.
On to A41G U58C, for which the self-cleavage was 0.911.
For G40U U55G the value was 0.232; for G40U U55C, 0.171; for A41G G68C, 0.508.
For A41C C66A the value was 0.214.
As to A41C C66G, the self-cleavage came to 0.292.
The value for A41C C66U was 0.614.
The value for G40A U60A was 0.271.
For G40A U60G the value was 0.214; for A41G G69C, 0.534; for A41G G69A, 0.411.
In the case of A41C A64U, the self-cleavage amounted to 0.267.
For the variant A41C A49C, the self-cleavage turned out to be 0.217.
Consider A41G A59C, for which the self-cleavage was found to be 0.436.
For A41C U63C, the self-cleavage amounted to 0.192.
For A41C U63G the value was 0.102; for A41C U63A, 0.108; for A41G G42A, 0.282.
Consider A41G G42C, for which the self-cleavage was 0.0762.
The value for G40A G56U was 0.0994; that for G40A G56C was 0.146.
For A41G U53A the value was 1.1; for A41G U53C, 0.819; for G40A A64U, 0.139.
In the case of G40C U63C, the self-cleavage is 0.164.
With G40U C50A, the self-cleavage came out at 0.0746.
For G40U C50G the value was 0.136; for G40C C66A, 0.105; for G40C C66G, 0.519.
The value for G40C C66U was 0.184; that for A41C U53C was 0.822.
For A41G A47U the value was 0.212; for A41G A47C, 0.189.
Take G40C C50A: the self-cleavage is 0.0683.
Regarding A41C G51U, the self-cleavage came out at 1.48.
The value for A41C G51C was 1.16.
The value for A41C G51A was 1.33.
The value for A41G C66G was 0.255.
With G40A C46A, the self-cleavage was 0.184.
The value for A41U A47U was 0.207; that for A41U A47G was 0.207; that for G40U G57U was 0.153.
The value for G40U G57C was 0.124.
For G40A C50A the value was 0.194.
For the variant G40C G56A, the self-cleavage came out at 0.107.
For the variant G40A U52G, the self-cleavage stood at 0.212.
The value for G40C A47U was 0.0303; that for G40U G69C was 0.14; that for G40C C48G was 0.127.
Take A41G A44G: the self-cleavage is 0.249.
The value for G40U C48A was 0.0709; that for A41C U52A was 1.17.
For G40U G42U the value was 0.116; for G40U G68C, 0.163; for G40U G68A, 0.134.
For A41C A61U the value was 0.234; for A41C U67G, 0.124; for G40U A49G, 0.175.
In the case of G40U A61G, the self-cleavage came out at 0.186.
The value for G40C A41U was 0.13; that for A41G U52C was 0.827; that for G40C G68C was 0.0987.
For G40C G68A the value was 0.132; for A41C U55A, 0.405; for A41G U70C, 0.981.
For A41G U70G the value was 0.677; for G40U C65U, 0.177.
Turning to G40U C65G, the self-cleavage turned out to be 0.099.
For A41C A45C the value was 0.11; for A41C A45G, 0.257; for A41C A45U, 0.202.
Regarding A41G U60C, the self-cleavage was found to be 1.23.
The value for A41G U63G was 0.248.
For A41G U63C the value was 0.0946; for G40U A43G, 0.134; for G40U A43U, 0.148.
The value for G40C U58A was 0.16.
As to G40C U58C, the self-cleavage stood at 0.0707.
The value for G40A U55A was 0.157; that for G40C G51C was 0.127.
As for G40C G51U, the self-cleavage stood at 0.131.
The value for A41U A59C was 0.158; that for G40C A43G was 0.138.
For G40A U70G the value was 0.182.
With G40A U70A, the self-cleavage was 0.158.
For the variant A41C G57U, the self-cleavage stood at 0.502.
As to G40U A59G, the self-cleavage was 0.115.
For G40U A59C the value was 0.0879.
The value for G40U G54U was 0.096; that for A41G G56U was 0.195.
For A41G U67C the value was 0.483.
For A41G U67G, the self-cleavage turned out to be 0.5.
The value for A41G U55C was 0.23; that for G40A C65U was 0.435.
For G40A C65A the value was 0.315; for A41C G56A, 0.155.
For A41G G57C the value was 0.172; for G40U U70G, 0.0618; for A41C C46G, 0.117.
On to G40U C46G, for which the self-cleavage was 0.136.
As to G40A A71C, the self-cleavage amounted to 0.574.
Turning to G40A A71U, the self-cleavage worked out at 0.198.
The value for G40A G42A was 0.0412; that for G40C G54A was 0.124; that for G40C G54U was 0.0743.
Regarding G40A G69U, the self-cleavage was found to be 0.197.
For A41C U62G the value was 0.
Consider A41C U62A, for which the self-cleavage is 0.325.
With G40U U58G, the self-cleavage stood at 0.183.
The value for A41C U60A was 1.17; that for A41C U60C was 1.27.
As for G40C A61G, the self-cleavage was 0.0698.
For G40A U67A the value was 0.108.
For G40A U67C the value was 0.121; for G40C G69U, 0.128.
Consider G40C G69A, for which the self-cleavage was 0.111.
The value for A41C U58A was 1.07.
